According to IntAct's records for PubMed 31515488:

B1: Translation initiation factor eIF2B subunit beta (Homo sapiens), P49770 (parent)
chain: MPGSAAKGSELSERIESFVETLKRGGGPRSSEEMARETLGLLRQIITDHRWSNAGELMELIRREGRRMTAAQPSETTVGNMVRRVLKIIREEYGRLHGRSDESDQQESLHKLLTSGGLNEDFSFHYAQLQSNIIEAINELLVELEGTMENIAAQALEHIHSNEVIMTIGFSRTVEAFLKEAARKRKFHVIVAECAPFCQGHEMAVNLSKAGIETTVMTDAAIFAVMSRVNKVIIGTKTILANGALRAVTGTHTLALAAKHHSTPLIVCAPMFKLSPQFPNEEDSFHKFVAPEEVLPFTEGDILEKVSVHCPVFDYVPPELITLFISNIGGNAPSYIYRLMSELYHPDDHVL
B2: Coiled-coil domain-containing glutamate-rich protein 1 (Homo sapiens), Q8TC90 (parent)
chain: MTQTLDTREDPLNLGGGGGGGCGCGWAHSASLSSWSSCHRRRPGAPAYNRPHRYSPKTEYGPPRKQPKQQHGPGFWFQPPVCSNWGCWGGPWRPPPPGFWKFPCPVQVFRVYGLHPLCFCCCSCWSGSWNPGWVKPPGRKKRWGRRGRGLRHHPRHSYPRSPPADVSTLPRPVKLYEWREPGMRAPPNTTQFIMNQIYEDMRQQEKVERQQEALRAQKATVSGEASPARSSGNDAPPGGSKETWGLQETLYGFVQNPSLAFSPNPEENQSLAPLLVEEEEEKKNDDEEEYDQEVCDAKEASEEEEEVEDEEEEVEDEEEEEVEEAEYVEEGEEELEEEELEEEEEVLEENEQRGEEFHLPLEMPLSIFVEAEEKRENFISCTFLNPEQIIPKVPQESLFMAQDFNC
B3: Inhibitor of nuclear factor kappa-B kinase-interacting protein (Homo sapiens), Q70UQ0-4 (parent)
chain: MSEVKSRKKSGPKGAPAAEPGKRSEGGKTPVARSSGGGGWADPRTCLSLLSLGTCLGLAWFVFQQSEKFAKVENQYQLLKLETNEFQQLQSKISLISEKLESTESILQEATSSMSLMTQFEQEVSNLQDIMHDIQNNEEVLTQRMQSLNEKFQNITDFWKRSLEEMNINTDIFKSEAKHIHSQVTVQINSAEQEIKLLTERLKDLEDSTLRNIRTVKRQEEEDLLRVEEQLGSDTKAIEKLEEEQHALFARDEDLTNKLSDYEPKVEECKTHLPTIESAIHSVLRVSQDLIETEKKMEDLTMQMFNMEDDMLKAVSEIMEMQKTLEGIQYDNSILKMQNELDILKEKVHDFIAYSSTGEKGTLKEYNIENKGIGGDF
partner: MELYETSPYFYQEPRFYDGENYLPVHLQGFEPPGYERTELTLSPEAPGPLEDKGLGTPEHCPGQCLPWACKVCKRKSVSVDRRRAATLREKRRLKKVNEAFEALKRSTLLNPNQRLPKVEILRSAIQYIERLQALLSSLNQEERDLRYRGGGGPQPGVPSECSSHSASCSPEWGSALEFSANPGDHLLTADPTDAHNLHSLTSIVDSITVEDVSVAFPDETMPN
B4: Retinoic acid receptor alpha (Homo sapiens), P10276 (parent)
chain: MASNSSSCPTPGGGHLNGYPVPPYAFFFPPMLGGLSPPGALTTLQHQLPVSGYSTPSPATIETQSSSSEEIVPSPPSPPPLPRIYKPCFVCQDKSSGYHYGVSACEGCKGFFRRSIQKNMVYTCHRDKNCIINKVTRNRCQYCRLQKCFEVGMSKESVRNDRNKKKKEVPKPECSESYTLTPEVGELIEKVRKAHQETFPALCQLGKYTTNNSSEQRVSLDIDLWDKFSELSTKCIIKTVEFAKQLPGFTTLTIADQITLLKAACLDILILRICTRYTPEQDTMTFSDGLTLNRTQMHNAGFGPLTDLVFAFANQLLPLEMDDAETGLLSAICLICGDRQDLEQPDRVDMLQEPLLEALKVYVRKRRPSRPHMFPKMLMKITDLRSISAKGAERVITLKMEIPGSMPPLIQEMLENSEGLDTLSGQPGGGGRDGGGLAPPPGSCSPSLSPSSNRSSPATHSP
partner: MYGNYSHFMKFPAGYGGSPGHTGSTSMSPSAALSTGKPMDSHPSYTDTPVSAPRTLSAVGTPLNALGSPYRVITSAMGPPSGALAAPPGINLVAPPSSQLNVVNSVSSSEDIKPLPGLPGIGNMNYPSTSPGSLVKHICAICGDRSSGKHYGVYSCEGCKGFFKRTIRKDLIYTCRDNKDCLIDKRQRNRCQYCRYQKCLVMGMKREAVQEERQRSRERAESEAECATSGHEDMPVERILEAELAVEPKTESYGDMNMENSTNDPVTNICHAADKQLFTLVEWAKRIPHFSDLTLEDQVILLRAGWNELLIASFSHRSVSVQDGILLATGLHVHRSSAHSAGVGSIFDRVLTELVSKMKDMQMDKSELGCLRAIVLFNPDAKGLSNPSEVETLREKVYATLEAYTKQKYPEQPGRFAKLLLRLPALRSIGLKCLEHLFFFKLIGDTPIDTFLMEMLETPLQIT
B5: 60 kDa heat shock protein, mitochondrial (Homo sapiens), P10809 (parent)
chain: MLRLPTVFRQMRPVSRVLAPHLTRAYAKDVKFGADARALMLQGVDLLADAVAVTMGPKGRTVIIEQSWGSPKVTKDGVTVAKSIDLKDKYKNIGAKLVQDVANNTNEEAGDGTTTATVLARSIAKEGFEKISKGANPVEIRRGVMLAVDAVIAELKKQSKPVTTPEEIAQVATISANGDKEIGNIISDAMKKVGRKGVITVKDGKTLNDELEIIEGMKFDRGYISPYFINTSKGQKCEFQDAYVLLSEKKISSIQSIVPALEIANAHRKPLVIIAEDVDGEALSTLVLNRLKVGLQVVAVKAPGFGDNRKNQLKDMAIATGGAVFGEEGLTLNLEDVQPHDLGKVGEVIVTKDDAMLLKGKGDKAQIEKRIQEIIEQLDVTTSEYEKEKLNERLAKLSDGVAVLKVGGTSDVEVNEKKDRVTDALNATRAAVEEGIVLGGGCALLRCIPALDSLTPANEDQKIGIEIIKRTLKIPAMTIAKNAGVEGSLIVEKIMQSSSEVGYDAMAGDFVNMVEKGIIDPTKVVRTALLDAAGVASLLTTAEVVVTEIPKEEKDPGMGAMGGMGGGMGGGMF
partner: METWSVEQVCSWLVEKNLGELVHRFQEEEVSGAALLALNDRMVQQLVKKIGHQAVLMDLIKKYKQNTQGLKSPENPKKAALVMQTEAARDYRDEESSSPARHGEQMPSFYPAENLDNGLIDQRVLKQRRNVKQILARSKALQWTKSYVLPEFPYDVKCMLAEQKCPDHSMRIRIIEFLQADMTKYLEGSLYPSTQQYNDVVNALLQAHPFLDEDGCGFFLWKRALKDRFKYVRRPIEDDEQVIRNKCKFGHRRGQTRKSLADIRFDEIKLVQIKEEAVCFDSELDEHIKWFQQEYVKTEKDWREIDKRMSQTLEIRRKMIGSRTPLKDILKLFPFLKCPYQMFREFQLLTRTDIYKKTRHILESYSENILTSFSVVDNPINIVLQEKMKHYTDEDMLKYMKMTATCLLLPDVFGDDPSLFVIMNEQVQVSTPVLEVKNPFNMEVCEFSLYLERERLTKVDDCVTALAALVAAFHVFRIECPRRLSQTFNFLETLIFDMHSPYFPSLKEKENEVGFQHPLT
B6: Dynein light chain 2, cytoplasmic (Homo sapiens), Q96FJ2 (parent)
chain: MSDRKAVIKNADMSEDMQQDAVDCATQAMEKYNIEKDIAAYIKKEFDKKYNPTWHCIVGRNFGSYVTHETKHFIYFYLGQVAILLFKSG
B7: Tuftelin-interacting protein 11 (Homo sapiens), Q9UBB9 (parent)
chain: MSLSHLYRDGEGRIDDDDDERENFEITDWDLQNEFNPNRQRHWQTKEEATYGVWAERDSDDERPSFGGKRARDYSAPVNFISAGLKKGAAEEAELEDSDDEEKPVKQDDFPKDFGPRKLKTGGNFKPSQKGFAGGTKSFMDFGSWERHTKGIGQKLLQKMGYVPGRGLGKNAQGIINPIEAKQRKGKGAVGAYGSERTTQSMQDFPVVDSEEEAEEEFQKELSQWRKDPSGSKKKPKYSYKTVEELKAKGRISKKLTAPQKELSQVKVIDMTGREQKVYYSYSQISHKHNVPDDGLPLQSQQLPQSGKEAKAPGFALPELEHNLQLLIDLTEQEIIQNDRQLQYERDMVVNLFHELEKMTEVLDHEERVISNLSKVLEMVEECERRMQPDCSNPLTLDECARIFETLQDKYYEEYRMSDRVDLAVAIVYPLMKEYFKEWDPLKDCTYGTEIISKWKSLLENDQLLSHGGQDLSADAFHRLIWEVWMPFVRNIVTQWQPRNCDPMVDFLDSWVHIIPVWILDNILDQLIFPKLQKEVENWNPLTDTVPIHSWIHPWLPLMQARLEPLYSPIRSKLSSALQKWHPSDSSAKLILQPWKDVFTPGSWEAFMVKNIVPKLGMCLGELVINPHQQHMDAFYWVIDWEGMISVSSLVGLLEKHFFPKWLQVLCSWLSNSPNYEEITKWYLGWKSMFSDQVLAHPSVKDKFNEALDIMNRAVSSNVGAYMQPGARENIAYLTHTERRKDFQYEAMQERREAENMAQRGIGVAASSVPMNFKDLIETKAEEHNIVFMPVIGKRHEGKQLYTFGRIVIYIDRGVVFVQGEKTWVPTSLQSLIDMAK
partner: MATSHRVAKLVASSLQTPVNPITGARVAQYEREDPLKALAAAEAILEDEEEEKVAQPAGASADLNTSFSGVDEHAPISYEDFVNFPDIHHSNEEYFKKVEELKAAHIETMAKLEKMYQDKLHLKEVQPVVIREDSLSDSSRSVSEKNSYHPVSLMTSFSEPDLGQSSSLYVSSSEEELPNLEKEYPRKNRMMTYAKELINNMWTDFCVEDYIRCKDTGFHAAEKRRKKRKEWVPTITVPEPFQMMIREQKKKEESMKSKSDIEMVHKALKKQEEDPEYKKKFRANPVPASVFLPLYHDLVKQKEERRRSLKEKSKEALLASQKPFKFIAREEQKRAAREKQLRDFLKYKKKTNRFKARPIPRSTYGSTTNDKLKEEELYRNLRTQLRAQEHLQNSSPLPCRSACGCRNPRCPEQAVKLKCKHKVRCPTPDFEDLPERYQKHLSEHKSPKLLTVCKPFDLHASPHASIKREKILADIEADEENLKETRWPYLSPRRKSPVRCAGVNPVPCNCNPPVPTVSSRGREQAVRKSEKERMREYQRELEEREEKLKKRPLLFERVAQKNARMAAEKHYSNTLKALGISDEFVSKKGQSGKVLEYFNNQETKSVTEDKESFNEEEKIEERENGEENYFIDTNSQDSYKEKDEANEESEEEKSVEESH
B8: Peroxisomal bifunctional enzyme (Homo sapiens), Q08426 (parent)
chain: MAEYTRLHNALALIRLRNPPVNAISTTLLRDIKEGLQKAVIDHTIKAIVICGAEGKFSAGADIRGFSAPRTFGLTLGHVVDEIQRNEKPVVAAIQGMAFGGGLELALGCHYRIAHAEAQVGLPEVTLGLLPGARGTQLLPRLTGVPAALDLITSGRRILADEALKLGILDKVVNSDPVEEAIRFAQRVSDQPLESRRLCNKPIQSLPNMDSIFSEALLKMRRQHPGCLAQEACVRAVQAAVQYPYEVGIKKEEELFLYLLQSGQARALQYAFFAERKANKWSTPSGASWKTASARPVSSVGVVGLGTMGRGIVISFARARIPVIAVDSDKNQLATANKMITSVLEKEASKMQQSGHPWSGPKPRLTSSVKELGGVDLVIEAVFEEMSLKKQVFAELSAVCKPEAFLCTNTSALDVDEIASSTDRPHLVIGTHFFSPAHVMKLLEVIPSQYSSPTTIATVMNLSKKIKKIGVVVGNCFGFVGNRMLNPYYNQAYFLLEEGSKPEEVDQVLEEFGFKMGPFRVSDLAGLDVGWKSRKGQGLTGPTLLPGTPARKRGNRRYCPIPDVLCELGRFGQKTGKGWYQYDKPLGRIHKPDPWLSKFLSRYRKTHHIEPRTISQDEILERCLYSLINEAFRILGEGIAASPEHIDVVYLHGYGWPRHKGGPMFYASTVGLPTVLEKLQKYYRQNPDIPQLEPSDYLKKLASQGNPPLKEWQSLAGSPSSKL
partner: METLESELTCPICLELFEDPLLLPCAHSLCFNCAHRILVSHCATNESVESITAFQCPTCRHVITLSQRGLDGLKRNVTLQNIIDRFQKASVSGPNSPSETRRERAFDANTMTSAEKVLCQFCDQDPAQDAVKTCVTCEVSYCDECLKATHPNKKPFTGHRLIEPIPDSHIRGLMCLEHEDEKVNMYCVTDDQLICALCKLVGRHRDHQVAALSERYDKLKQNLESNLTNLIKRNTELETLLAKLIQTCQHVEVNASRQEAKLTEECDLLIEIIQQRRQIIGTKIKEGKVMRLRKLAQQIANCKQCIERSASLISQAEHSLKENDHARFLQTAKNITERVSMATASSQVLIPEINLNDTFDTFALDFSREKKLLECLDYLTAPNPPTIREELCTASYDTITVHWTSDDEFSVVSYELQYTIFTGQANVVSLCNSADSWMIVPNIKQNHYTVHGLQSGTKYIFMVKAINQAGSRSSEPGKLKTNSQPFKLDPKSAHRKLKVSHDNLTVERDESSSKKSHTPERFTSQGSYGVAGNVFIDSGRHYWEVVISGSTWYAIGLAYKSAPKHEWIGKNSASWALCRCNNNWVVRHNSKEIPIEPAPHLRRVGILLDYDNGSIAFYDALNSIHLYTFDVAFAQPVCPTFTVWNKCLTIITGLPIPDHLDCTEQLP

Variants of: B1
Conditions: with ei2bd_human EIF2B4, Q9UI10

| Variant | effect of a mutation on the interaction |
| --- | --- |
| A127V | with no effect |

Variants of: B2
Conditions: with pls1_human PLSCR1, O15162

| Variant | effect of a mutation on the interaction |
| --- | --- |
| E293K | with no effect |

Variants of: B2
Conditions: with nt2na_human NOTCH2NLA

| Variant | effect of a mutation on the interaction |
| --- | --- |
| E293K | with no effect |

Variants of: B3
Conditions: with myog_human MYOG

| Variant | effect of a mutation on the interaction |
| --- | --- |
| D157Y | disrupting interaction strength |
| V186G | with no effect |

Variants of: B4
Conditions: with rxrg_human RXRG

| Variant | effect of a mutation on the interaction |
| --- | --- |
| P318R | with no effect |

Variants of: B5
Conditions: with samd3_human SAMD3, Q8N6K7

| Variant | effect of a mutation on the interaction |
| --- | --- |
| R142K | disrupting interaction strength |
| R9G | with no effect |

Variants of: B6
Conditions: with tha10_human THAP10, Q9P2Z0

| Variant | effect of a mutation on the interaction |
| --- | --- |
| N33S | with no effect |

Variants of: B7
Conditions: with FAM161A

| Variant | effect of a mutation on the interaction |
| --- | --- |
| S688L | with no effect |
| R8Q | with no effect |

Variants of: B8
Conditions: with tri18_human MID1, O15344

| Variant | effect of a mutation on the interaction |
| --- | --- |
| R556G | with no effect |
